Assay results from the supplement of paper PMC11246515.
± gives the standard deviation of the averaged measurements.

Test: total protein half-life in vivo (active degradation + dilution); higher = more stable protein
[1] = E. coli NCM3722 delta-clpP delta-lon delta-hslV, growth: N-lim chemostat, doubling time 6 h
[2] = E. coli NCM3722 delta-clpP, growth: N-lim chemostat, doubling time 6 h
[3] = E. coli NCM3722 delta-lon, growth: N-lim chemostat, doubling time 6 h
[4] = E. coli NCM3722 delta-smpB, growth: N-lim chemostat, doubling time 6 h
[5] = wild type E. coli NCM3722, growth: C-lim chemostat, doubling time 6 h
[6] = wild type E. coli NCM3722, growth: C-lim chemostat, doubling time 12 h
[7] = wild type E. coli NCM3722, growth: N-lim chemostat, doubling time 6 h
[8] = wild type E. coli NCM3722, growth: N-lim chemostat, doubling time 12 h
[9] = wild type E. coli NCM3722, growth: P-lim chemostat, doubling time 6 h
[10] = wild type E. coli NCM3722, growth: P-lim chemostat, doubling time 12 h
[11] = E. coli NCM3722 delta-hslV, growth: N-lim chemostat, doubling time 6 h
[12] = wild type E. coli NCM3722, growth: C-lim chemostat, doubling time 3 h

Sequence	total protein half-life in vivo [1] [h]	total protein half-life in vivo [2] [h]	total protein half-life in vivo [3] [h]	total protein half-life in vivo [4] [h]	total protein half-life in vivo [5] [h]	total protein half-life in vivo [6] [h]	total protein half-life in vivo [7] [h]	total protein half-life in vivo [8] [h]	total protein half-life in vivo [9] [h]	total protein half-life in vivo [10] [h]	total protein half-life in vivo [11] [h]	total protein half-life in vivo [12] [h]
MPYKTKSDLPESVKHVLPSHAQDIYKEAFNSAWDQYKDKEDRRDDASREETAHKVAWAAVKHEYAKGDDDKWHKKS [P0AE63]	6.81 ± 0.52	4.36 ± 0.59	5.1 ± 0.19	5.01 ± 2.3	5.53	6.09	3.3 ± 0.35	6.77 ± 0.7	4.41	7.39 ± 1.7		
MQASQFSAQVLDWYDKYGRKTLPWQIDKTPYKVWLSEVMLQQTQVATVIPYFERFMARFPTVTDLANAPLDEVLHLWTGLGYYARARNLHKAAQQVATLHGGKFPETFEEVAALPGVGRSTAGAILSLSLGKHFPILDGNVKRVLARCYAVSGWPGKKEVENKLWSLSEQVTPAVGVERFNQAMMDLGAMICTRSKPKCSLCPLQNGCIAAANNSWALYPGKKPKQTLPERTGYFLLLQHEDEVLLAQRPPSGLWGGLYCFPQFADEESLRQWLAQRQIAADNLTQLTAFRHTFSHFHLDIVPMWLPVSSFTGCMDEGNALWYNLAQPPSVGLAAPVERLLQQLRTGAPV		5.73 ± 0.018	3.65 ± 0.12	3.52 ± 0.35	4.84 ± 0.14	7.51 ± 0.26	4.8 ± 1.8	6.05	4.89 ± 0.49	8.5 ± 0.85	4.02 ± 0.7	3.86
MQCALYDAGRCRSCQWIMQPIPEQLSAKTADLKNLLADFPVEEWCAPVSGPEQGFRNKAKMVVSGSVEKPLLGMLHRDGTPEDLCDCPLYPASFAPVFAALKPFIARAGLTPYNVARKRGELKYILLTESQSDGGMMLRFVLRSDTKLAQLRKALPWLHEQLPQLKVITVNIQPVHMAIMEGETEIYLTEQQALAERFNDVPLWIRPQSFFQTNPAVASQLYATARDWVRQLPVKHMWDLFCGVGGFGLHCATPDMQLTGIEIASEAIACAKQSAAELGLTRLQFQALDSTQFATAQGDVPELVLVNPPRRGIGKPLCDYLSTMAPRFIIYSSCNAQTMAKDIRELPGFRIERVQLFDMFPHTAHYEVLTLLVKQ	5.35 ± 0.065	3.16	5.02 ± 0.69	4.32 ± 0.3	5.35 ± 0.8	> 16	5.51	10.8 ± 1.5	5.7 ± 0.55	11.9 ± 1.2	4.89 ± 0.31	3.6
MQDEYYMARALKLAQRGRFTTHPNPNVGCVIVKDGEIVGEGYHQRAGEPHAEVHALRMAGEKAKGATAYVTLEPCSHHGRTPPCCDALIAAGVARVVASMQDPNPQVAGRGLYRLQQAGIDVSHGLMMSEAEQLNKGFLKRMRTGFPYIQLKLGASLDGRTAMASGESQWITSPQARRDVQLLRAQSHAILTSSATVLADDPALTVRWSELDEQTQALYPQQNLRQPIRIVIDSQNRVTPVHRIVQQPGETWFARTQEDSREWPETVRTLLIPEHKGHLDLVVLMMQLGKQQINSIWVEAGPTLAGALLQAGLVDELIVYIAPKLLGSDARGLCTLPGLEKLADAPQFKFKEIRHVGPDVCLHLVGA	5.45 ± 0.12	4.76 ± 0.62	5.1 ± 0.31	4.57 ± 0.21	6.76 ± 0.081	10.1 ± 0.38	4.98 ± 0.35	8.77 ± 0.11	5.904 ± 0.027	11.7 ± 0.15	5.07 ± 0.25	2.9 ± 0.13
MQDKDFFSWRRTMLLRFQRMETAEEVYHEIELQAQQLEYDYYSLCVRHPVPFTRPKVAFYTNYPEAWVSYYQAKNFLAIDPVLNPENFSQGHLMWNDDLFSEAQPLWEAARAHGLRRGVTQYLMLPNRALGFLSFSRCSAREIPILSDELQLKMQLLVRESLMALMRLNDEIVMTPEMNFSKREKEILRWTAEGKTSAEIAMILSISENTVNFHQKNMQKKINAPNKTQVACYAAATGLI	4.97 ± 0.28											
MQDLISQVEDLAGIEIDHTTSMVMIFGIIFLTAVVVHIILHWVVLRTFEKRAIASSRLWLQIITQNKLFHRLAFTLQGIIVNIQAVFWLQKGTEAADILTTCAQLWIMMYALLSVFSLLDVILNLAQKFPAASQLPLKGIFQGIKLIGAILVGILMISLLIGQSPAILISGLGAMAAVLMLVFKDPILGLVAGIQLSANDMLKLGDWLEMPKYGADGAVIDIGLTTVKVRNWDNTITTIPTWSLVSDSFKNWSGMSASGGRRIKRSISIDVTSIRFLDEDEMQRLNKAHLLKPYLTSRHQEINEWNRQQGSTESVLNLRRMTNIGTFRAYLNEYLRNHPRIRKDMTLMVRQLAPGDNGLPLEIYAFTNTVVWLEYESIQADIFDHIFAIVEEFGLRLHQSPTGNDIRSLAGAFKQ [P0AAT4]	6.49 ± 0.43	6.36 ± 0.28	6.69 ± 1.4	6.33 ± 0.022	6.12 ± 0.22	13.9 ± 0.19	6.22 ± 0.46	12 ± 1.6	5.84 ± 0.59	13.7 ± 1.2	6.274 ± 0.01	3.52 ± 0.6
MQDRNFDDIAEKFSRNIYGTTKGQLRQAILWQDLDRVLAEMGPQKLRVLDAGGGEGQTAIKMAERGHQVILCDLSAQMIDRAKQAAEAKGVSDNMQFIHCAAQDVASHLETPVDLILFHAVLEWVADPRSVLQTLWSVLRPGGVLSLMFYNAHGLLMHNMVAGNFDYVQAGMPKKKKRTLSPDYPRDPAQVYLWLEEAGWQIMGKTGVRVFHDYLREKHQQRDCYEALLELETRYCRQEPYITLGRYIHVTARKPQSKDKV	4.99 ± 0.24	4.498 ± 0.018	4.57 ± 0.49	4.304 ± 0.012	5.46 ± 0.57	10.2 ± 0.95	4.21 ± 0.36	7.11 ± 0.55	5.32 ± 0.21	11 ± 0.42	3.95 ± 0.13	2.96 ± 0.23
MQDSILTTVVKDIDGEVTTLEKFAGNVLLIVNVASKCGLTPQYEQLENIQKAWVDRGFMVLGFPCNQFLEQEPGSDEEIKTYCTTTWGVTFPMFSKIEVNGEGRHPLYQKLIAAAPTAVAPEESGFYARMVSKGRAPLYPDDILWNFEKFLVGRDGKVIQRFSPDMTPEDPIVMESIKLALAK	5.18 ± 1.1	4.68 ± 0.55	4.73 ± 0.43	4.24 ± 0.047	4.93 ± 0.1	7.87 ± 4.7	3.99 ± 0.07	6.05 ± 0.29	4.87 ± 0.1	11.1 ± 0.68	4.23 ± 0.055	2.82 ± 0.28
MQEGQNRKTSSLSILAIAGVEPYQEKPGEEYMNEAQLAHFRRILEAWRNQLRDEVDRTVTHMQDEAANFPDPVDRAAQEEEFSLELRNRDRERKLIKKIEKTLKKVEDEDFGYCESCGVEIGIRRLEARPTADLCIDCKTLAEIREKQMAG [P0ABS1]	6.12 ± 0.34	6.26 ± 1.2	3.95 ± 0.44	3.12 ± 0.035	3.27 ± 0.28	5.07 ± 0.47	3.65 ± 0.58	7.03 ± 0.073	3.71 ± 0.66	9.06 ± 0.61	3.53 ± 0.55	1.68 ± 0.14
